Experimental data published in US20250283116, “USE OF ISCB IN GENOME EDITING” (Cornell University, published 2025).

Biological target: T1, OgeuIscB wild-type (human gut metagenome)
T1 chain: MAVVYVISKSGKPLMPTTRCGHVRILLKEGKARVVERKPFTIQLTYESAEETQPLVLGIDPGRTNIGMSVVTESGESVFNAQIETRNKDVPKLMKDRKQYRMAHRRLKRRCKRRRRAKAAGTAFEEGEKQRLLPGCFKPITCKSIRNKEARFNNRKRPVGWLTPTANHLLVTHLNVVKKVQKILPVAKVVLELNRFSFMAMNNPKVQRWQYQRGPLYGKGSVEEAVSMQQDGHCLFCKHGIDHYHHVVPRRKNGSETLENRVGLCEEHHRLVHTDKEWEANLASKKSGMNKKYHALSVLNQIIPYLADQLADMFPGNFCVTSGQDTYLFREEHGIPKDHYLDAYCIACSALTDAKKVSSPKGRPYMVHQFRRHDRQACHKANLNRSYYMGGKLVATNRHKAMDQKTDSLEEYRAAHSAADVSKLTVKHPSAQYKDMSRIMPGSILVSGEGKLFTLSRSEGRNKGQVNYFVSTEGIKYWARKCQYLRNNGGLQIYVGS
Test: structure; cryo-EM of IscB-ωRNA/target DNA at 2.78 A; TAM 5'-CTAGAA-3' (ideal NWRRNA)
Conditions: label: 5' 6-FAM on non-target strand; partially mismatched bubble in protospacer
Procedure: IscB was incubated for 15 minutes at 37° C. with the target DNA in cleavage buffer. DNA was supplied at a 3 fold molar excess to IscB (0.5 mg/mL final concentration). 3.5 μL of were applied to a Quantifoil holey carbon grid (1.2/1.3, 200 mesh) which had been glow-discharged with 20 mA at 0.39 mBar for 30 seconds (PELCO easiGlow). Grids were blotted with Vitrobot blotting paper (Electron Microscopy Sciences) for 6.5 s at 4° C., 100% humidity, and plunge-frozen in liquid ethane using a Mark IV FEI/Thermo Fisher Vitrobot. Data were collected on a Krios G3i Cryo Transmission Electron Microscope (Thermo Scientific) with a Ceta 16M CMOS camera 300 kV, Gatan K3 direct electron detector. The total exposure time of each movie stack led to a total accumulated dose of 50 electrons per Å2 which fractionated into 50 frames. Dose-fractionated super-resolution movie stacks collected from the Gatan K3 direct electron detector were binned to a pixel size of 1.1 Å. The defocus value was set between −1.0 μm to −2.5 μm.

B1: OgeuIscB ωRNA with 16-nt guide ; cryo-EM target DNA (ssRNA ; dsDNA)
RNA: AAAAGAGUGAACGAGAGGCUCUUCCAACUUUAUGGUUGCGACCGUAGGUUGAAAGAGCACAGGCUGAGACAUUCGUAAGGCCGAAAGACCGGACGCACCCUGGGAUUUCCCCAGUCCCCGGAACUGCAUAGCGGAUGCCAGUUGAUGGAGCAAUCUAUCAGAUAAGCCAGGGGGAACAAUCACCUCUCUGUAUCAGAGAGAGUUUUACAAAAGGAGGAACGG
DNA 1: CGCCCCACGAGGGTACGGCAAAAGAGTTTTTTTTACTAGAAGTCGAGGTCAGCCCGTGGC
DNA 2: GCCACGGGCTGACCTCGACTTCTAGTCTCGTTCACTCTTTTGCCGTACCCTCGTGGGGCG
modifications: phosphorothioate at several positions of both strands (after G25-T31 region as marked by *)
  binding result: binds
